Assay results reported in patent US20190276499A1, “Protein VII Fragments and Methods of Use Thereof for the Treatment of Inflammatory Disorders” (priority 2016, published 2019).
Entries after “also recorded” stand apart in the source; their conditions may differ.

Tests used:
nucleosomes = assay: Nucleosome in vitro binding and MNase digestion assays
Procedure: Gel shift and MNase digestion assays were carried out as described (Falk et al. (2015) Science 348:699-703; Hasson et al. (2013) Nat. Struct. Mol. Biol., 20:687-695; Sekulic et al. (2010) Nature 467:347-351). Briefly, nucleosomes were reconstituted by incubating purified recombinant histones with ‘601’ DNA of either 195 or 147 bp over a series of dialysis. Recombinant protein VII-His was then combined with nucleosomes at various molar ratios, incubated at room temperature for 15 minutes, and analyzed by native gel electrophoresis. Complexes were also digested with MNase (Affymetrix) by addition of 1 unit per μg of DNA for 147 bp nucleosome experiments and 0.1 unit per μg of DNA for 195 bp nucleosome experiments, incubated at 22° C. for varying amounts of time followed by the addition of EGTA and guanidine thiocyanate to stop the reaction. The DNA fragments were then purified using a MinElute PCR purification kit (Qiagen) and analyzed on an Agilent 2100 Bioanalyzer as described (Falk et al. (2015) Science 348:699-703).

HMGB2 [1] = target: T1, HMGB2 (Homo sapiens, UniProt P26583); assay: Salt fractionation of nuclei, western blot for HMGB2; assay type: cell-based; conditions: upon protein VII expression
T1 construct: endogenous in cells; host or cells: THP-1 (PMA-differentiated)
T1 sequence (P26583 1-209): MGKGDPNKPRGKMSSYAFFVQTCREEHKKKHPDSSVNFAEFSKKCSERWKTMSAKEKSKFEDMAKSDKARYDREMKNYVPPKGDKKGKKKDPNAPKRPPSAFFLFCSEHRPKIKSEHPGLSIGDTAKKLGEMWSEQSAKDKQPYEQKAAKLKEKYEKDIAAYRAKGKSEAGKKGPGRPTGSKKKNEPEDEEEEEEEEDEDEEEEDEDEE
Procedure: Salt fractionation of nuclei was adapted from established protocols (Zaret, K. (2005) Micrococcal nuclease analysis of chromatin structure. Curr. Protoc. Mol., Biol. Chapter 21, Unit 21.1; Teves et al. (2012) Methods Mol. Biol., 833:421-432). Briefly, 2-4×10^7 cells were collected and resuspended in 2 mL of ice-cold buffer I (0.32 M sucrose, 60 mM KCl, 15 mM NaCl, 5 mM MgCl2, 0.1 mM EGTA, 15 mM Tris, pH 7.5, 0.5 mM DTT, 0.1 mM PMSF and protease inhibitor cocktail from Roche). To dissolve the plasma membrane, 2 mL ice-cold buffer I supplemented with 0.1% IGEPAL were added and samples were incubated on ice for 10 minutes. The 4 mL of nuclei was layered on 8 mL of ice-cold buffer II (1.2 M sucrose, 60 mM KCl, 15 mM NaCl, 5 mM MgCl2, 0.1 mM EGTA, 15 mM Tris, pH 7.5, 0.5 mM DTT, 0.1 mM PMSF and protease inhibitor cocktail from Roche) and centrifuged for 20 minutes at 10,000×g and 4° C. The pelleted nuclei were resuspended in 400 μL buffer III (10 mM Tris pH 7.4, 2 mM MgCl2, 0.1 mM PMSF) supplemented with 5 mM CaCl2 and the DNA was digested to mononucleosomes by addition of 1 unit of MNase (Sigma-Aldrich, N3755). […] The final pellet was resuspended in 400 μL ddH2O and all samples were analyzed together by western blot. An aliquot of each supernatant was set aside for DNA purification using a PCR purification kit (Qiagen) and analyzed by agarose gel electrophoresis. […]

HMGB2 [2] = target: T1, HMGB2; assay: Release assay of HMGB2 in THP-1 cells; assay type: cell-based; conditions: PMA-treated THP-1 cells, LPS plus nigericin
Procedure: THP-1 cells were seeded at a density of 2×10^5 cells per well in a 24-well plate, and stimulated into macrophage-like cells by addition of 10 ng/mL PMA for 48 hours. Cells were washed in PBS and transduced with recombinant adenovirus vectors expressing only GFP or protein VII-GFP such that >90% of cells were GFP positive. At 48 hours post transduction, cells were washed and 200 μL of serum free RPMI was added. To stimulate the inflammasome, LPS (Sigma-Aldrich L2880) with a final concentration of 0.5 μg/mL was added to wells and incubated for 2 hours, then nigericin (Sigma-Aldrich N7143) was added with a final concentration of 10 μM for 1 hour. Supernatants were collected and proteins precipitated overnight at 4° C. with a final concentration of 20% trichloroacetic acid (Sigma), washed with acetone, dried, and resuspended in 1×sample buffer with reducing agent (Invitrogen). For ELISA analysis, supernatants were harvested directly and HMGB1 content was detected by the manufacturer's instructions (Chondrex 6010). Cells were also harvested by the addition of 1×sample buffer with reducing agent (Invitrogen) and boiled. Supernatants and lysates were analyzed together by western blot.

B1: protein VII: mature protein VII of human adenovirus type 5 (SEQ ID NO:1), expressed in cells, mostly with C-terminal HA tag (protein)
chain: AKKRSDQHPVRVRGHYRAPWGAHKRGRTGRTTVDDAIDAVVEEARNYTPTPPPVSTVDAAIQTVVRGARRYAKMKRRRRRVARRHRRRPGTAAQRAAAALLNRARRTGRRAAMRAARRLAAGIVTVPPRSRRRAAAAAAAAISAMTQGRRGNVYWVRDSVSGLRVPVRTRPPRN
modifications: C-terminal HA tag; Human adenovirus 5
Question: How did the “Protection from MNase digestion” value (nucleosomes; 147 bp nucleosome core particle) turn out when B1 was run?
Answer: Its value is “completely blocks digestion; also recorded: protects against MNase digestion”.

Question: What about the “Nucleosome mobility on native gel electrophoresis” value (nucleosomes; 195 bp nucleosomes) of the same molecule?
Answer: The value was “changed nucleosome mobility”.

Question: What about the “Point at which MNase digestion of nucleosomal DNA pauses” value (nucleosomes; 195 bp nucleosomes) of the same molecule?
Answer: Its value is 165 bp.

Question: What about the “Chromatin association of HMGB2 (fractionated nuclei)” value (HMGB2 [1]) of the same molecule?
Answer: The value was “Increased chromatin association”.

Question: What about the HMGB2 in supernatants (HMGB2 [2]) of the same molecule?
Answer: Its HMGB2 in supernatants is “reduced levels”.
